Test results: the supplement of paper PMC10567573

B1: ZNF449 (parent)
chain: HKKKSPGEKPHRCPQCGKCFARKS

Variants of: B1
Assay: protein stability index of a GFP-peptide fusion (GPS, HEK-293T) (PSI 1-6); higher = more stable
Conditions: c terminus: a fixed tail appended
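Further: lentivirally expressed fusions sorted by FACS into six bins by GFP to DsRed ratio, PSI derived from sequencing read proportions per bin multiplied by bin number.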

In order of rising protein stability index:
1. HKKYSPGEKPHRCPQCGKCFARKS [K4Y]  2.33
2. HYKKSPGEKPHRCPQCGKCFARKS [K2Y]  2.37
3. HKKKSPGEKPHFCPQCGKCFARKS [R12F]  2.56
4. HKKKSPGEKPHRCWQCGKCFARKS [P14W]  2.57
5. HKKKSPGEKPHWCPQCGKCFARKS [R12W]  2.68
6. HKKKSPGEKPHRFPQCGKCFARKS [C13F]  2.71
7. HKKKPPGEKPHRCPQCGKCFARKS [S5P]  2.71
8. HKKKSPGEKPHRCFQCGKCFARKS [P14F]  2.72
9. HKKKSPGEKPHPCPQCGKCFARKS [R12P]  2.74
10. HKKKSPGEKPHTCPQCGKCFARKS [R12T]  2.74
11. HKKKVPGEKPHRCPQCGKCFARKS [S5V]  2.77
12. HKKQSPGEKPHRCPQCGKCFARKS [K4Q]  2.84
13. HKKASPGEKPHRCPQCGKCFARKS [K4A]  2.87
14. HKKWSPGEKPHRCPQCGKCFARKS [K4W]  2.98
15. HKKKSPGEKPHRCRQCGKCFARKS [P14R]  3
16. HKKKSPGEKPHRCSQCGKCFARKS [P14S]  3.01
17. HKKKSPGEKPHRCAQCGKCFARKS [P14A]  3.01
18. HKKKSPGEKPYRCPQCGKCFARKS [H11Y]  3.02
19. HTKKSPGEKPHRCPQCGKCFARKS [K2T]  3.03
20. HWKKSPGEKPHRCPQCGKCFARKS [K2W]  3.04
21. HKKKSPGEKPRRCPQCGKCFARKS [H11R]  3.08
22. HKKKSPGEKPHGCPQCGKCFARKS [R12G]  3.1
23. HKKGSPGEKPHRCPQCGKCFARKS [K4G]  3.13
24. HKKSSPGEKPHRCPQCGKCFARKS [K4S]  3.14
25. HKKKSPGEKPHRWPQCGKCFARKS [C13W]  3.15
26. HKKKSPGEKPMRCPQCGKCFARKS [H11M]  3.18
27. HKKKMPGEKPHRCPQCGKCFARKS [S5M]  3.18
28. HKKKSPGEKPLRCPQCGKCFARKS [H11L]  3.19
29. HSKKSPGEKPHRCPQCGKCFARKS [K2S]  3.19
30. HKKKSPGEKPHQCPQCGKCFARKS [R12Q]  3.19
31. HKKKSPGEKPDRCPQCGKCFARKS [H11D]  3.21
32. HKKKLPGEKPHRCPQCGKCFARKS [S5L]  3.23
33. HVKKSPGEKPHRCPQCGKCFARKS [K2V]  3.25
34. HKKKSPGEKPHRCHQCGKCFARKS [P14H]  3.26
35. HKKKIPGEKPHRCPQCGKCFARKS [S5I]  3.26
36. HKKKSPGEKPKRCPQCGKCFARKS [H11K]  3.28
37. HKKKSPGEKPHYCPQCGKCFARKS [R12Y]  3.3
38. HKKKSPGEKPHRCPQCCKCFARKS [G17C]  3.31
39. HKKKHPGEKPHRCPQCGKCFARKS [S5H]  3.32
40. HQKKSPGEKPHRCPQCGKCFARKS [K2Q]  3.36
41. HKKKSFGEKPHRCPQCGKCFARKS [P6F]  3.36
42. HKKMSPGEKPHRCPQCGKCFARKS [K4M]  3.37
43. HKKKSKGEKPHRCPQCGKCFARKS [P6K]  3.39
44. HKKKFPGEKPHRCPQCGKCFARKS [S5F]  3.4
45. HKKKSPGEKPNRCPQCGKCFARKS [H11N]  3.41
46. HKKHSPGEKPHRCPQCGKCFARKS [K4H]  3.41
47. HKKKSPGEKPARCPQCGKCFARKS [H11A]  3.42
48. HKKKSPGEKPHRCPQCHKCFARKS [G17H]  3.44
49. HPKKSPGEKPHRCPQCGKCFARKS [K2P]  3.46
50. HKKKSPGEKPTRCPQCGKCFARKS [H11T]  3.49
51. HKKKSRGEKPHRCPQCGKCFARKS [P6R]  3.51
52. HKKFSPGEKPHRCPQCGKCFARKS [K4F]  3.52
53. HKKKSPGEKPWRCPQCGKCFARKS [H11W]  3.54
54. HKKKSPGEKPHRCTQCGKCFARKS [P14T]  3.54
55. HKKKYPGEKPHRCPQCGKCFARKS [S5Y]  3.55
56. HKKKSPGEKPGRCPQCGKCFARKS [H11G]  3.57
57. HKKKSPGEKPHHCPQCGKCFARKS [R12H]  3.59
58. HKKKSPGEKPHRCIQCGKCFARKS [P14I]  3.62
59. HKKVSPGEKPHRCPQCGKCFARKS [K4V]  3.66
60. HKKKEPGEKPHRCPQCGKCFARKS [S5E]  3.7
61. HKKPSPGEKPHRCPQCGKCFARKS [K4P]  3.72
62. HKKKSPGEKPHRCYQCGKCFARKS [P14Y]  3.75
63. HKKKSPGEKPHRCVQCGKCFARKS [P14V]  3.75
64. HKKCSPGEKPHRCPQCGKCFARKS [K4C]  3.75
65. HNKKSPGEKPHRCPQCGKCFARKS [K2N]  3.78
66. HKKKSPGEKPHRCKQCGKCFARKS [P14K]  3.78
67. HKKKSPGEKPHRCEQCGKCFARKS [P14E]  3.79
68. HKKKSPGEKPHRCPQCFKCFARKS [G17F]  3.79
69. HKKKQPGEKPHRCPQCGKCFARKS [S5Q]  3.84
70. HKKKSPGEKPHLCPQCGKCFARKS [R12L]  3.85
71. HKKKSPGEKPHRCPQCDKCFARKS [G17D]  3.86
72. HKKKSPGEKPHRCNQCGKCFARKS [P14N]  3.87
73. HKKKSPGEKPHRQPQCGKCFARKS [C13Q]  3.88
74. HKKKNPGEKPHRCPQCGKCFARKS [S5N]  3.88
75. HKKTSPGEKPHRCPQCGKCFARKS [K4T]  3.89
76. HKKKSPGEKPHRRPQCGKCFARKS [C13R]  3.91
77. HKKKSPGEKPHNCPQCGKCFARKS [R12N]  3.92
78. HKKKSPGEKPHKCPQCGKCFARKS [R12K]  3.98
79. HKKRSPGEKPHRCPQCGKCFARKS [K4R]  4.01
80. HKKKSPGEKPHRIPQCGKCFARKS [C13I]  4.05
81. HKKKSPGEKPHRHPQCGKCFARKS [C13H]  4.07
82. HKKKAPGEKPHRCPQCGKCFARKS [S5A]  4.1
83. HKKKSPGEKPHSCPQCGKCFARKS [R12S]  4.11
84. HKKKSPGEKPERCPQCGKCFARKS [H11E]  4.17
85. HKKLSPGEKPHRCPQCGKCFARKS [K4L]  4.2
86. HKKKSPGEKPHRKPQCGKCFARKS [C13K]  4.26
87. HKKKSPGEKPHREPQCGKCFARKS [C13E]  4.34
88. HKKKSPGEKPHRDPQCGKCFARKS [C13D]  4.36
89. HKKKSPGEKPHRSPQCGKCFARKS [C13S]  4.4
90. HKKKSPGEKPCRCPQCGKCFARKS [H11C]  4.53
91. HKKKSPGEKPHRTPQCGKCFARKS [C13T]  4.67
92. HKKKSPGEKPHRVPQCGKCFARKS [C13V]  4.69
93. HKKKSPGEKPHRMPQCGKCFARKS [C13M]  4.82
94. HKKKSPGEKPHRNPQCGKCFARKS [C13N]  4.95
